First the molecules themselves.
B1: Acyl-CoA-binding protein, P07107 (parent)
chain: MSQAEFDKAAEEVKHLKTKPADEEMLFIYSHYKQATVGDINTERPGMLDFKGKAKWDAWNELKGTSKEDAMKAYIDKVEELKKKYGI

This data set covers variants of B1. The note with it: Bos taurus; pH 5.3; 5 °C; GdnHCl; Fluorescence; Sodium acetate 0.02 M; reversible: yes; structure 2ABD; whole UniProt chain shown.

Data on 25 variants can be found in FireProtDB (doi:10.1021/bi982427c).

For MSQAEFDKAAEEVKHLKTKPAAEEMLFIYSHYKQATVGDINTERPGMLDFKGKAKWDAWNELKGTSKEDAMKAYIDKVEELKKKYGI [D22A], the “ddG of mutation (higher = less stable)” value is -0.42 kcal/mol and the unfolding free energy came out at 8.31 kcal/mol.
On to MSQAEFDKAAEEVKHLKTKPAHEEMLFIYSHYKQATVGDINTERPGMLDFKGKAKWDAWNELKGTSKEDAMKAYIDKVEELKKKYGI [D22H], for which the “ddG of mutation (higher = less stable)” value worked out at 0.56 kcal/mol and the unfolding free energy is 7.33 kcal/mol.
MSQAEFDKAAEEVKHLKTKPADEEMLFIYSHYKQATVGDINTERPGMLDFKGKAAWDAWNELKGTSKEDAMKAYIDKVEELKKKYGI [K55A]: the “ddG of mutation (higher = less stable)” value was 0.86 kcal/mol and the unfolding free energy was 7.03 kcal/mol.
Turning to MSQAEFDKAAEEVKHLKTKPADEEMLFIYSHYKQATVGDINTERPGMLDFKGKAKWDAWNELKGTSKEDAMKAAIDKVEELKKKYGI [Y74A], the “ddG of mutation (higher = less stable)” value is 4.83 kcal/mol and the unfolding free energy was 3.06 kcal/mol.
The corresponding values for MSQAEFDKAAEEVKHLKTKPADEEMLFIYSHYKQATVGDINTERPGMLDFKGKAKWDAWNELKGTSKEDAMKAFIDKVEELKKKYGI [Y74F] are -0.27 kcal/mol and 8.16 kcal/mol.
As to MSQAEFDKAAEEVKHLKTKPADEEMLFIYSHYKQATVGDINTERPGMLDFKGMAMWDAWNELKGTSKEDAMKAYIDKVEELKKKYGI [K53M K55M], the “ddG of mutation (higher = less stable)” value is -1.01 kcal/mol and the unfolding free energy turned out to be 8.9 kcal/mol.
The like results for MSQAEFDKAAEEVKHLKTKPADEEMLFIYSHYEQATVGDINTERPGMLDFKGKAKWDAWNELKGTSKEDAMKAYIDKVEELKKKYGI [K33E] were, in that order, 1.68 kcal/mol and 6.21 kcal/mol.
For the variant MSQAEFDKAAEEVKHLKTKPADEEMLFIYSHYAQATVGDINTERPGMLDFKGKAKWDAWNELKGTSKEDAMKAYIDKVEELKKKYGI [K33A], the “ddG of mutation (higher = less stable)” value amounted to 1.02 kcal/mol and the unfolding free energy came out at 6.87 kcal/mol.
For MSQAEFDKAAEEVKHLKTKPADEEMLFIYSHYRQATVGDINTERPGMLDFKGKAKWDAWNELKGTSKEDAMKAYIDKVEELKKKYGI [K33R], the “ddG of mutation (higher = less stable)” value stood at 1.83 kcal/mol and the unfolding free energy is 6.06 kcal/mol.
MSQAEFDKAAEEVKHLKTKAADEEMLFIYSHYKQATVGDINTERPGMLDFKGKAKWDAWNELKGTSKEDAMKAYIDKVEELKKKYGI [P20A]: the “ddG of mutation (higher = less stable)” value amounted to 1.07 kcal/mol and the unfolding free energy amounted to 6.82 kcal/mol.
With MSQAEFDKAAEEAKHLKTKPADEEMLFIYSHYKQATVGDINTERPGMLDFKGKAKWDAWNELKGTSKEDAMKAYIDKVEELKKKYGI [V13A], the “ddG of mutation (higher = less stable)” value is 1.69 kcal/mol and the unfolding free energy was determined as 6.2 kcal/mol.
Consider MSQAEFDKAAEEVKHLKTKPADEEMLFIYSHYKQATVGDINTERPGMLDFKGKAKWDAWNELKGTSKEDAMKAYIDKVEEAKKKYGI [L81A], for which the “ddG of mutation (higher = less stable)” value stood at 3.7 kcal/mol and the unfolding free energy amounted to 4.19 kcal/mol.
MSQAEFDKAAEEVKHLKTKPADEEMLFIASHYKQATVGDINTERPGMLDFKGKAKWDAWNELKGTSKEDAMKAYIDKVEELKKKYGI [Y29A]: the “ddG of mutation (higher = less stable)” value came out at 2.47 kcal/mol and the unfolding free energy is 5.42 kcal/mol.
For the variant MSQAEFDKAAEEVKHLKTKPADEEMLFIFSHYKQATVGDINTERPGMLDFKGKAKWDAWNELKGTSKEDAMKAYIDKVEELKKKYGI [Y29F], the “ddG of mutation (higher = less stable)” value is 1.06 kcal/mol and the unfolding free energy turned out to be 6.83 kcal/mol.
The corresponding values for MSQAEFDKAAEEVKHLKTKPADEEMLFIYSHYKQGTVGDINTERPGMLDFKGKAKWDAWNELKGTSKEDAMKAYIDKVEELKKKYGI [A35G] are 1.57 kcal/mol and 6.32 kcal/mol.
The like results for MSQAEFDKAAEEVKHLKTKPADEEMLFIYSHYKAATVGDINTERPGMLDFKGKAKWDAWNELKGTSKEDAMKAYIDKVEELKKKYGI [Q34A] were, in that order, 3.66 kcal/mol and 4.23 kcal/mol.
On to MSQAEFDKAAEEVKHLKTKPADEEMLFIYSHYKQAAVGDINTERPGMLDFKGKAKWDAWNELKGTSKEDAMKAYIDKVEELKKKYGI [T36A], for which the “ddG of mutation (higher = less stable)” value came to 1.09 kcal/mol and the unfolding free energy stood at 6.8 kcal/mol.
In the case of MSQAEFDKAAEEVKHLKTKPADEEMLFIYSHYKQATVGDINTERPGMLDFKGMAKWDAWNELKGTSKEDAMKAYIDKVEELKKKYGI [K53M], the “ddG of mutation (higher = less stable)” value was -0.18 kcal/mol and the unfolding free energy turned out to be 8.07 kcal/mol.
On to MSQAEFDKAAEEVKHLKTKPADEEMLFIYSHYKQATVGDINTERPGMLDFKGKAKWDAWNELKGTSKADAMKAYIDKVEELKKKYGI [E68A], for which the “ddG of mutation (higher = less stable)” value is 0.36 kcal/mol and the unfolding free energy is 7.53 kcal/mol.
As to MSQAEFDKAAEEVKHLKTKPADEEMLFIYSHNKQATVGDINTERPGMLDFKGKAKWDAWNELKGTSKEDAMKAYIDKVEELKKKYGI [Y32N], the “ddG of mutation (higher = less stable)” value was 1.52 kcal/mol and the unfolding free energy is 6.37 kcal/mol.
On to MSQAEFDKAAEEVKHLKTKPADEEMLFIYSHYKQATVGDINTERAGMLDFKGKAKWDAWNELKGTSKEDAMKAYIDKVEELKKKYGI [P45A], for which the “ddG of mutation (higher = less stable)” value was 1.4 kcal/mol and the unfolding free energy was determined as 6.49 kcal/mol.
In the case of MSQAEFDKAAEEVKHAKTKPADEEMLFIYSHYKQATVGDINTERPGMLDFKGKAKWDAWNELKGTSKEDAMKAYIDKVEELKKKYGI [L16A], the “ddG of mutation (higher = less stable)” value came to 3.1 kcal/mol and the unfolding free energy was 4.79 kcal/mol.
For the variant MSQAEFDKAAEEVKHLKTKPADEEMLFIYSHYKQATVGDINTERPGMLDFKGKAKWDAWNELKGTSKEDAMKAYIDKAEELKKKYGI [V78A], the “ddG of mutation (higher = less stable)” value was found to be 1.14 kcal/mol and the unfolding free energy stood at 6.75 kcal/mol.
As for MSQAEADKAAEEVKHLKTKPADEEMLFIYSHYKQATVGDINTERPGMLDFKGKAKWDAWNELKGTSKEDAMKAYIDKVEELKKKYGI [F6A], the “ddG of mutation (higher = less stable)” value was 2.52 kcal/mol and the unfolding free energy came to 5.37 kcal/mol.
Consider MSQAEFDKAAEEVKHLKTKPADEEMAFIYSHYKQATVGDINTERPGMLDFKGKAKWDAWNELKGTSKEDAMKAYIDKVEELKKKYGI [L26A], for which the “ddG of mutation (higher = less stable)” value was found to be 1.02 kcal/mol and the unfolding free energy was 6.87 kcal/mol.
